Key:
[1] = target: T1, human 4-1BB ligand (4-1BB-L), cell surface (human, UniProt P41273 1-254); test: slide autoradiography on transfected CV-1 cells
T1 construct: Native on the anti-CD3-stimulated PL1 (PL-1) T cell clone, the source of the cDNA; Recombinant full length on transfected CV-1/EBNA cells; also called hu4-1BB-L; clone 7A

[2] = target: T2, murine 4-1BB ligand (4-1BB-L), cell surface (murine, UniProt P41274 1-309); test: Scatchard analysis, 125I-4-1BB/Fc binding to EL4 6.1C10 cells
T2 construct: Native on EL4 6.1C10 and EL4 6.1 thymoma cells, the source of the cDNA; Recombinant full length on transfected COS and CV-1 cells; also called mu4-1BB-L; native surface mu4-1BB-L
T2 sequence: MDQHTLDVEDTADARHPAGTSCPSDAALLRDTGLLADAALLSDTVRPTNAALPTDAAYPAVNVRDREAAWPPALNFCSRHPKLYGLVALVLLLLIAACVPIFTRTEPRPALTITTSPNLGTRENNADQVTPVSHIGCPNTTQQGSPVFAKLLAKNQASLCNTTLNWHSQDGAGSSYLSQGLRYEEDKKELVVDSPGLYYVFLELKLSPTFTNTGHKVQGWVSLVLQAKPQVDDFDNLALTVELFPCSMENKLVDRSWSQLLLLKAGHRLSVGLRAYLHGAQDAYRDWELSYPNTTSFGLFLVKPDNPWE
Method: Several cell lines were screened for the ability to bind the radioiodinated murine 4-1BB/Fc fusion protein described in Example 1. Briefly, quantitative binding studies were performed according to standard methodology, and Scatchard plots were derived for the various cell lines. […] The EL4 6.1C10 cell line was derived from a subclone designated EL4 6.1 by using a cell sorter to enrich for a cell population expressing high levels of murine type I Interleukin-1 receptor, as described in U.S. Pat. No. 4,968,607. EL4 6.1 had been derived from a mouse thymoma cell line EL-4 (ATCC TIB39) as described by MacDonald et al. (J. Immunol. 135:3944, 1985) and Lowenthal and MacDonald (J. Exp. Med. 164:1060, 1986).

T1 sequence (P41273 whole entry): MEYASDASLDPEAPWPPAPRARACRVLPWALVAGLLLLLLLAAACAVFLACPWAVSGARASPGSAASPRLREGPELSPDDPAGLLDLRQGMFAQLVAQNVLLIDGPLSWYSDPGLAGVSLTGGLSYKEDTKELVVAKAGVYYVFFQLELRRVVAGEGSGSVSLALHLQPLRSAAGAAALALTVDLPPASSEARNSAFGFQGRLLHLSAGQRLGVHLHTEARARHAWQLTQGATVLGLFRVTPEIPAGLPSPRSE

binding result [1]: no binding
Ka [2]: ~2e+09 M⁻¹
B1: murine 4-1BB/Fc fusion protein (Fc fusion)
chain: VQNSCDNCQPGTFCRKYNPVCKSCPPSTFSSIGGQPNCNICRVCAGYFRFKKFCSSTHNAECECIEGFHCLGPQCTRCEKDCRPGQELTKQGCKTCSLGTFNDQNGTGVCRPWTNCSLDGRSVLKTGTTEKDVVCGPPVVSFSPSTTISVTPEEPRSCDKTHTCPPCPAPELLGGPSVFLFPPKPKDTLMISRTPEVTCVVVDVSHEDPEVKFNWYVDGVEVHNAKTKPREEQYNSTYRVVSVLTVLHQDWLNGKDYKCKVSNKALPAPMQKTISKAKGQPREPQVYTLPPSRDELTKNQVSLTCLVKGFYPRHIAVEWESNGQPENNYKTTPPVLDSDGSFFLYSKLTVDKSRWQQGNVFSCSVMHEALHNHYTQKSLSLSPGK
modifications: 125I-radioiodinated where used as tracer
notes: The murine IL-7 leader of the vector is cleaved on secretion; Fc is joined through the BglII site; also called mu4-1BB/Fc; soluble murine 4-1BB/Fc

Source: patent US20060127985A1 (IMMUNEX, published 2006)
